# Measured values as given in patent US5686595, “Bcl-2-associated proteins” (La Jolla Cancer Research Foundation, dated 1997).
# “And” between values parts separate entries of the source, which are not always exact repeats. Equal entries are not always repeated.
# B1: 35S-labeled Bcl-2β (in vitro translated) (other)
# chain: MAHAGRTGYDNREIVMKYIHYKLSQRGYEWDAGDVGAAPPGAAPAPGIFSSQPGHTPHPAASRDPVARTSPLQTPAAPGAAAGPALSPVPPVVHLTLRQAGDDFSRRYRRDFAEMSSQLHLTPFTARGRFATVVEELFRDGVNWGRIVAFFEFGGVMCVESVNREMSPLVDNIALWMTEYLNRHLHTWIQDNGGWVGALGDVSLG
# modifications: 35S-methionine label
# B2: 35S-labeled Bcl-X-S (in vitro translated) (other)
# chain: MSQSNRELVVDFLSYKLSQKGYSWSQFSDVEENRTEAPEGTESEMETPSAINGNPSWHLADSPAVNGATGHSSSLDAREVIPMAAVKQALREAGDEFELRYRRAFSDLTSQLHITPGTAYQSFEQDTFVELYGNNAAAESRKGQERFNRWFLTGMTVAGVVLLGSLFSRK
# modifications: 35S-methionine label
# What was measured:
# [1] = target: human Bcl-2 protein produced in 32D-BCL-2 cells (human) (UniProt P10415); assay: immunoprecipitation with anti-Bcl-2 monoclonal antibody 4D7 or control mouse IgG1 from 32D-BCL-2 lysate, in vitro immune complex kinase assay
# [2] = target: GST protein without BAP-1 sequences (Schistosoma japonicum (Blood fluke), UniProt P08515 = GST); assay: GST pull-down of 35S-labeled in vitro translated protein, SDS-PAGE and fluorography
# Procedure: The cDNA sequences encoding Bcl-X-L, Bcl-X-S, Bcl-2 and Bcl-2β were subcloned into plasmid pSK-II (Stratagens), which contains a T7 RNA polymerass binding site. Cloning into pSK-II allows for the in vitro production of RNA, which can be translated in vitro in the presence of ^35S-methionine using reticulocyte lysates to obtain ^35S-labeled proteins. The ^35S-labeled Bcl-2-related proteins (20 µl of in vitro translation mix) were added to approximately 1 µg of GST-BAP-1 fusion protein immobilized on 10 µl of glutathione-Sepharose or with approximately 1 µg of immobilized GST control protein as described above. Following incubation at 4° C. for 1 hr, the Sepharose particles were washed 3× in a solution containing 147 mM KCl, 20 mM Hepes (pH 7.1), 1 mM MgCl_2, 0.5 mM EGTA, 1 mM PMSF, 0.05 NP-40, 1 mM DTT, 1% non-fat dried milk and 1% BSA. The Sepharose particles were collected by centrifugation and boiled in Laemmli sample buffer to release any bound ^35S-labeled Bcl-2-related proteins. The released proteins were size-fractionated by SDS-PAGE using a 10% gel and visualized by fluorography using X-ray film.
Molecule,Raf-1 kinase activity in Bcl-2 immune complexes relative to control immune complexes (× (fold over control immune complexes)) [1],binding result [2]
full length endogenous Raf-1 kinase (from UniProt Q99N57) (enzyme),20 and 50,
B1,,no binding
B2,,no binding
